The values below are quoted from earlier work in article PMC6589385.

In general, pKa refers to the negative logarithm of the acid dissociation constant.

In the series the target is His37 (UniProt position 37, IIGILHLILWI). As to the kind of experiment: NMR. The settings on record: Membrane-bound wild-type AM2 tetrameric channel.

Take “Influenza A virus M2 protein (AM2) transmembrane domain, wild type (Influenza A virus)”: the pKa was 5.9.
